In the test the target is SARS-CoV-2 S 2P prefusion-stabilized ectodomain trimer (SARS-CoV-2 (Wuhan-Hu-1), stabilised). Kind of test: SPR.

1 molecule from doi:10.1101/2021.05.09.442808 (bioRxiv, 2021) can be followed below.

B1: S2P6 Fab fragment (Fab, V domains shown)
VH: EVQLVQSGAEVKKPGASVKVSCKASGYTFTSQYMHWVRQAPGQGLEWIGIINPSGVHTSYAQKFQGRVTLTRDTSTSTLYMELSSLRSEDTAVYYCARGSPKGAFDYWGQGTLVTVSS
VL: not shown
B1: the Kd was 7 nM.
